In patent US20120189572A1:

How the values were obtained:
[1] = target: mDR5ectm-td1, extracellular and transmembrane domains of murine DR5 fused to tetanus toxin fragment (mouse); assay: flow cytometry on SKOV3 cells transfected with murine DR5 (mDR5ectm-td1)
[2] = target: full length wild type human DR5 (human) (UniProt O14763); assay: cell-based or functional assay
Chain of UniProt O14763 (O14763 other isoform, or with tags, fused parts or gaps limits assumed): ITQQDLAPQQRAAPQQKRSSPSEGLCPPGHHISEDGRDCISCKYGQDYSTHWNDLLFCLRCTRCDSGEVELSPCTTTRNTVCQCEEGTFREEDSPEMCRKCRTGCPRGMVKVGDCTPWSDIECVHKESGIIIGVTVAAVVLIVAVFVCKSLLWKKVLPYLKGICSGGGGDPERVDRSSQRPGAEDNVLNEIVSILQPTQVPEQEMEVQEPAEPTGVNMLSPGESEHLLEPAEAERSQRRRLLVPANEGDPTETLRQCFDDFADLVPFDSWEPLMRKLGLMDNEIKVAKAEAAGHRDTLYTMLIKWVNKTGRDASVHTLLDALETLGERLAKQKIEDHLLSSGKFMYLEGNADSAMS

growth inhibition of SUM159 cells (MTT) at 1 µg/mL antibody [2] [%] | growth inhibition of SUM159 cells (MTT) at 2 µg/mL antibody [2] [%] | growth inhibition of SUM159 cells (MTT) at 4 µg/mL antibody [2] [%] | Substance | percent of cells stained [1] [%]
– | – | – | MD5-1, monoclonal antibody to mouse DR5 | 100
36 | 55 | 65 | human DR5 agonist monoclonal antibody mAb631 (clone 71903, MAB631; R&D Systems) | –
